Values quoted from earlier work as cited in PMC5580684.
“And” between values parts separate entries of the source, which are not always exact repeats. Equal values may be shown once.

Molecular target: DNA polymerase beta (Homo sapiens) (UniProt P06746)

For XRCC1 NTD (from UniProt P18887), the Kd is listed as 300 µM and 100 µM.
